Some targets named below: HLA-A*02:02; HLA-A*02:03; HLA-A*02:06.
Holding throughout (experiment): IEDB peptide-MHC binding, purified MHC/competitive/radioactivity; filed as Kd, often an IC50 or EC50 that approximates it; ≥ and ≤ were set here for values at or beyond the usual limits of such assays
Where [1] appears, read: source organism: Vaccinia virus WR.
The mark [2] stands for this setting: source organism: Mammarenavirus whitewaterense.
[3] abbreviates: source organism: SARS coronavirus Tor2.
Where [4] appears, read: source organism: Mammarenavirus brazilense.

Bounds are passed on as bounds.

The term Kd denotes the constant that tells how readily two partners part at equilibrium. Regarding NIPELKHGLL, the equilibrium dissociation constant (Kd) with HLA-A*02:02 (setting [1]) turned out to be 2300 nM; in the assay with HLA-A*02:03 (setting [1]), 2690 nM; in the assay with HLA-A*02:06 (setting [1]), 1230 nM.
The matching figures for RASTTENAA: at least 26700 nM, at least 66700 nM and 12100 nM.
With TVIKTLLEV, the figures for the Kd in the assay with HLA-A*02:02 (setting [2]), with HLA-A*02:03 (setting [2]) and in the assay with HLA-A*02:06 (setting [2]) were 2010 nM, 52.6 nM and 16.6 nM, respectively.
For the sequence IAEYIAGLKI, the equilibrium dissociation constant (Kd) is at least 28600 nM with HLA-A*02:02 (setting [1]), at least 23000 nM in the assay with HLA-A*02:03 (setting [1]) and 10200 nM with HLA-A*02:06 (setting [1]).
Consider IMDKEQLLKI, for which the Kd in the assay with HLA-A*02:02 (setting [1]) came out at 311 nM; with HLA-A*02:03 (setting [1]), 288 nM; in the assay with HLA-A*02:06 (setting [1]) it was 1340 nM.
The matching figures for IQKDINITHT: 1360 nM, 340 nM and at least 61700 nM.
For the sequence GIIITVGMLI, the dissociation constant (Kd) with HLA-A*02:02 (setting [1]) amounted to 3580 nM; in the assay with HLA-A*02:03 (setting [1]) it was 595 nM; with HLA-A*02:06 (setting [1]), 1130 nM.
For LALKNSQAEL, the dissociation constant Kd with HLA-A*02:02 (setting [1]) amounted to 741 nM; in the assay with HLA-A*02:03 (setting [1]), 333 nM; in the assay with HLA-A*02:06 (setting [1]) it was 1250 nM.
Consider LLFQLCTFT, for which the Kd with HLA-A*02:02 (setting [3]) was 22.3 nM; in the assay with HLA-A*02:03 (setting [3]) it was 3.77 nM; in the assay with HLA-A*02:06 (setting [3]), 11.1 nM.
As to IIELPYVGDT, the figures for the Kd with HLA-A*02:02 (setting [1]), with HLA-A*02:03 (setting [1]) and with HLA-A*02:06 (setting [1]) were 13700 nM, 4420 nM and 16900 nM, respectively.
With KVTGSYNLV, the Kd in the assay with HLA-A*02:02 (setting [1]) is 66.3 nM; with HLA-A*02:03 (setting [1]), 43.1 nM; in the assay with HLA-A*02:06 (setting [1]), 193 nM.
Take LLSAGIFGA: the results for the Kd with HLA-A*02:02 (setting [3]), with HLA-A*02:03 (setting [3]) and with HLA-A*02:06 (setting [3]) were 12.3 nM, 14.9 nM and 24.6 nM, respectively.
VAMLLTHGA: the Kd with HLA-A*02:02 (setting [1]) turned out to be 7160 nM; with HLA-A*02:03 (setting [1]), 628 nM; with HLA-A*02:06 (setting [1]) it was 726 nM.
The matching figures for DIISSKQYPA: 552 nM, 2430 nM and 3100 nM.
For the sequence TLNTLITLI, the Kd with HLA-A*02:02 (setting [1]) is 0.989 nM; with HLA-A*02:03 (setting [1]), 0.596 nM; with HLA-A*02:06 (setting [1]), 941 nM.
Take SLTQVKELGI: the values for the Kd with HLA-A*02:02 (setting [1]), in the assay with HLA-A*02:03 (setting [1]) and in the assay with HLA-A*02:06 (setting [1]) were 9.75 nM, 75.4 nM and 157 nM, respectively.
Take KIMEIVSHL: the dissociation constant Kd with HLA-A*02:02 (setting [1]) is 79 nM; with HLA-A*02:03 (setting [1]) it was 10.3 nM; with HLA-A*02:06 (setting [1]) it was 29.7 nM.
Consider KTVKNVDII, for which the Kd was found to be 607 nM with HLA-A*02:02 (setting [1]), 1790 nM with HLA-A*02:03 (setting [1]) and 698 nM with HLA-A*02:06 (setting [1]).
VVYHDDDNTT: the Kd in the assay with HLA-A*02:02 (setting [1]) stood at 1860 nM; in the assay with HLA-A*02:03 (setting [1]), 12600 nM; with HLA-A*02:06 (setting [1]), 3920 nM.
With LIDFYLCFL, the figures for the Kd with HLA-A*02:02 (setting [3]), with HLA-A*02:03 (setting [3]) and with HLA-A*02:06 (setting [3]) were 8.31 nM, 61 nM and 10.9 nM, respectively.
Consider ELIDVLKTRL, for which the Kd is 262 nM in the assay with HLA-A*02:02 (setting [1]), 118 nM with HLA-A*02:03 (setting [1]) and 1990 nM with HLA-A*02:06 (setting [1]).
Regarding DTMRIYCSL, the Kd with HLA-A*02:02 (setting [1]) came to 5840 nM; with HLA-A*02:03 (setting [1]), 5460 nM; with HLA-A*02:06 (setting [1]) it was 2920 nM.
For LMDSIFVSTM, the dissociation constant (Kd) in the assay with HLA-A*02:02 (setting [1]) amounted to 3.65 nM; with HLA-A*02:03 (setting [1]), 8.15 nM; in the assay with HLA-A*02:06 (setting [1]) it was 610 nM.
On to IASILSLET, for which the Kd is 3670 nM with HLA-A*02:02 (setting [1]), 7480 nM in the assay with HLA-A*02:03 (setting [1]) and 318 nM with HLA-A*02:06 (setting [1]).
Turning to SMWALVISV, the Kd in the assay with HLA-A*02:02 (setting [3]) stood at 6.12 nM; in the assay with HLA-A*02:03 (setting [3]), 4.43 nM; with HLA-A*02:06 (setting [3]) it was 0.793 nM.
For ITHTNITTLL, the Kd in the assay with HLA-A*02:02 (setting [1]) came out at 1690 nM; with HLA-A*02:03 (setting [1]) it was 101 nM; with HLA-A*02:06 (setting [1]), 14800 nM.
On to GLLEWIFRA, for which the results for the Kd with HLA-A*02:02 (setting [4]), with HLA-A*02:03 (setting [4]) and with HLA-A*02:06 (setting [4]) were 21.9 nM, 225 nM and 7.13 nM, respectively.
YMVTDKTAYI: the dissociation constant Kd was 0.225 nM with HLA-A*02:02 (setting [1]), 0.277 nM with HLA-A*02:03 (setting [1]) and 6.12 nM with HLA-A*02:06 (setting [1]).
With MIHKTYIDV, the results for the dissociation constant Kd with HLA-A*02:02 (setting [1]), with HLA-A*02:03 (setting [1]) and in the assay with HLA-A*02:06 (setting [1]) were 1400 nM, 15.2 nM and 126 nM, respectively.

The record behind these values is the Immune Epitope Database (IEDB).
